According to paper PMC6011931, “Substrate scope of a dehydrogenase from Sphingomonas species A1 and its potential application in the synthesis of rare sugars and sugar derivatives” (Microbial Biotechnology, 2018):

Columns and labels:
Assay in all cases: purified protein
Details in all cases: oxidation, 1 mM NAD+, 50 mM ammonium bicarbonate pH 7.9, 25 °C
[1] = substrate: O=C(O)[C@H](O)[C@H](O)[C@H](O)[C@H](O)CO
[2] = substrate: O=C(O)[C@@H](O)[C@@H](O)[C@H](O)[C@H](O)CO
[3] = substrate: O=C(O)[C@H](O)[C@@H](O)[C@H](O)[C@H](O)CO
[4] = substrate: O=C(O)[C@@H](O)[C@H](O)[C@H](O)[C@H](O)CO
[5] = substrate: O=C(O)[C@H](O)[C@H](O)[C@H](O)CO; format: biochemical, Sphingomonas sp. A1
[6] = substrate: O=C(O)C(=O)C[C@H](O)[C@H](O)CO; format: biochemical, Sphingomonas sp. A1
[7] = substrate: O=C(O)[C@H](O)[C@@H](O)[C@H](O)CO; format: biochemical, Sphingomonas sp. A1
[8] = substrate: O=C(O)[C@@H](O)[C@@H](O)[C@H](O)CO; format: biochemical, Sphingomonas sp. A1
[9] = substrate: OCC(O)CO; format: biochemical, Sphingomonas sp. A1
[10] = substrate: O=C(O)[C@@H](O)[C@@H](O)[C@@H](O)[C@H](O)CO; format: biochemical, Sphingomonas sp. A1
[11] = substrate: O=C(O)[C@H](O)[C@@H](O)[C@@H](O)[C@H](O)CO; format: biochemical, Sphingomonas sp. A1
[12] = substrate: O=C(O)[C@@H](O)[C@H](O)[C@H](O)CO; format: biochemical, Sphingomonas sp. A1

B1: SpsADH (Sphingomonas sp. A1) (protein)
chain: MFSDLKGKRILITGSTEGIGMATAIELARYGAVVGLNSHVDPADPALLLGKLREAGGDGAFFRADITKTAECQRLVSAFVERFDGIDVLINNAGGLAGRSNLENIDDAFYDRVMDLNGRSVLMMTKFAIPHLRASAKASGTTSAVISTGSIAAREGGGIGAGVYAASKAWLHDIHRNWVKEFTKDSIRFNIVAPGTVDTAFHADKSDELKTRIANSIPMGRFGTVQELAPAYVFFASHAASGYITGQILDVNGGQICP
notes: full length (258 residues), codon-optimised synthetic gene, N-terminal His6-tag kept (pET-28a), E. coli BL21(DE3), 29 500 Da; NAD+-dependent isoenzyme (printed locus SPH3227 may belong to the NADP+-dependent isoenzyme)
Km [1]: 16 ± 2 mM
Vmax [1]: 0.36 µmol/min/mg
kcat [1]: 0.18 s⁻¹
kcat/Km [1]: 11 M⁻¹ s⁻¹
Km [2]: 14 ± 1 mM
Vmax [2]: 1.1 µmol/min/mg
kcat [2]: 0.53 s⁻¹
kcat/Km [2]: 38 M⁻¹ s⁻¹
Km [3]: 12 ± 1 mM
Vmax [3]: 2 µmol/min/mg
kcat [3]: 0.98 s⁻¹
kcat/Km [3]: 82 M⁻¹ s⁻¹
Km [4]: 24 ± 4 mM
Vmax [4]: 0.39 µmol/min/mg
kcat [4]: 0.19 s⁻¹
kcat/Km [4]: 8 M⁻¹ s⁻¹
Km [5]: 16 ± 1 mM
Vmax [5]: 0.01 µmol/min/mg
kcat [5]: 0.0052 ± 0.0001 s⁻¹
kcat/Km [5]: 0.33 ± 0.03 M⁻¹ s⁻¹
Km [6]: 13 ± 3 mM
Vmax [6]: 2.8 µmol/min/mg
kcat [6]: 1.4 ± 0.08 s⁻¹
kcat/Km [6]: 100 ± 30 M⁻¹ s⁻¹
Km [7]: 24 ± 2 mM
Vmax [7]: 0.066 µmol/min/mg
kcat [7]: 0.032 ± 0.002 s⁻¹
kcat/Km [7]: 1.4 ± 0.2 M⁻¹ s⁻¹
Km [8]: 27 ± 2 mM
Vmax [8]: 0.0086 µmol/min/mg
kcat [8]: 0.0042 ± 0.0001 s⁻¹
kcat/Km [8]: 0.16 ± 0.02 M⁻¹ s⁻¹
Km [9]: 100 ± 10 mM
Vmax [9]: 0.011 µmol/min/mg
Km [10]: 6 ± 1 mM
Vmax [10]: 0.042 µmol/min/mg
kcat [10]: 0.021 ± 0.001 s⁻¹
kcat/Km [10]: 3.4 ± 0.9 M⁻¹ s⁻¹
Km [11]: 50 ± 5 mM
Vmax [11]: 0.016 µmol/min/mg
kcat [11]: 0.0079 ± 0.0003 s⁻¹
kcat/Km [11]: 0.16 ± 0.02 M⁻¹ s⁻¹
Km [12]: 27 ± 3 mM
Vmax [12]: 0.01 µmol/min/mg
kcat [12]: 0.0048 ± 0.0001 s⁻¹
kcat/Km [12]: 0.18 ± 0.02 M⁻¹ s⁻¹
